This assay has as its target EZH2 (human, wild type, subunit of reconstituted PRC2 complexes) (human, UniProt Q15910-2 1-751). The assay is described as follows: SEC.

B1: EED (human, wild type, subunit of reconstituted PRC2 complexes) (natural protein)
chain: not shown
Consider B1, for which the binding result is reported as “binds”.

The values above are taken from publication PMC6736635 (Nature structural & molecular biology, 2019).
